We go through three molecules from patent US20230277625A1.

T1: Human IL-18Rα ectodomain (amino acids 19-329), biotinylated (human), Q13478
T1 chain: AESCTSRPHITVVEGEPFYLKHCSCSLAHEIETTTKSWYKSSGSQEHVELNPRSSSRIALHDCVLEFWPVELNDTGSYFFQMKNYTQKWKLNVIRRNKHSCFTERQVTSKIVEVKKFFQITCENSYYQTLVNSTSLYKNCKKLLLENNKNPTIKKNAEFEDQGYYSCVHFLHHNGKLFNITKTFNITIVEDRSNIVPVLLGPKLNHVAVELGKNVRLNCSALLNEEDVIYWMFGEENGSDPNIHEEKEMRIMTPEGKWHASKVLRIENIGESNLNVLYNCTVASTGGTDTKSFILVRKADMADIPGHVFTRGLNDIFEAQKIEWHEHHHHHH

B1: SEQ ID NO: 125 (human D2D IL-18 consensus hD2D-CS3), Q14116 37-193 (ligand)
chain: YFGKLESKLSVIRNLNGQVLFIDQGNRPLFADMESSDCRDNAPRTIFIISFYKDSQPRGLAVTISVKCEKISTLSCENKIISFKEMNPPDNIKDTKSDIIFFLRSVPGHDNKMQFESSSYEGYFLACEKERDLFKLILKKEDELGDRSIMFTVQNED
modifications: here or on the partner: biotin on the AviTag (BirA ligase)
B2: SEQ ID NO: 123 (human D2D IL-18 consensus hD2D-CS1), Q14116 37-193 (ligand)
chain: YFGKLESKLSVIRNLNGQVLFIDQGNRPLFADMTDSDCRDNAPRTIFIISMYKDSQPRGMAVTISVKCEKISTLSCENKIISFKEMNPPDNIKDTKSDIIFFLRSVPGHDNKMQFESSSYEGYFLACEKERDLFKLILKKEDELGDRSIMFTVQNED
modifications: here or on the partner: biotin on the AviTag (BirA ligase)
B3: SEQ ID NO: 124 (human D2D IL-18 consensus hD2D-CS2), Q14116 37-193 (ligand)
chain: YFGKLESKLSVIRNLNGQVLFIDQGNRPLFADMTSSDCRDNAPRTIFIISFYKDSQPRGMAVTISVKCEKISTLSCENKIISFKEMNPPDNIKDTKSDIIFFLRSVPGHDNKMQFESSSYEGYFLACEKERDLFKLILKKEDELGDRSIMFTVQNED
modifications: here or on the partner: biotin on the AviTag (BirA ligase)

The test has as its target T1, Human IL-18Rα ectodomain (amino acids …). The test can be described thus: on-yeast binding isotherm (flow cytometry), drawn summary table, IL18Rα (KD). The conditions noted are these: remark: other sources report otherwise.
In the case of B1, the Kd worked out at 9.7 µM.
With B2 the figure was 0.43 µM; with B3, 21 µM.

In general, Kd refers to the concentration at which binding is half-saturated.
